Laboratory results taken from paper PMC6249979.

Target: Flag-actin-WT, P60709
Test: co-immunoprecipitation with anti-Flag magnetic beads, competition with purified MRTF-A (2-261), immunoblot quantification
Conditions: chain shown with the change; NIH 3T3 cells co-expressing Flag-actin-WT and myc-JMY constructs, serum-starved for 24 h post transfection; purified MRTF-A (2-261) added to the lysates prior …; parent: est. 0.97; read off a plot

B1: myc-JMY-f.l., Q9QXM1 R961E (protein)
chain: MSFALEETLESDWVAVRPHVFDEREKHKFVFIVAWNEIEGKFAITCHNRTAQRQRSGSREQAGTPASDGSRGPGSPAARGRSEAAASATAALRSPGPRKSQAWAEGGSPRSARSLKGDPPRGPAGRGPESPLRSPARAKASPLRRSAESRDAIASATPVPPAPPVPPVSSVRVVSASGAVSEEIEVLEMVREDEAPQPLPDSEQPPSAAELESSAEECSWAGLFSFQDLRAVHQQLCSVNSQLEPCLPVFPEEPSGMWTVLFGGAPEMTEQEIDALCYQLQVYLGHGLDTCGWKILSQVLFTETDDPEEYYESLSELRQKGYEEVLQRARRRIQELLDKHKTIESMVELLDLYQMEDEAYSSLAEATTELYQYLLQPFRDMRELAMLRRQQIKISMENDYLGPRRIESLQKEDADWQRKAHMAVLSIQDLTVKYFEITAKAQKAVYDRMRADQKKFGKASWAAAAERMEKLQYAVSKETLQMMRAKEICLEQKKHALKEEMQSLQGGTEAIARLDQLESDYYDLQLQLYEVQFEILKCEELLLTAQLESIKRLISEKRDEVVYYDTYESMEAMLEKEEMAASVHAQREELQKLQQKARQLEARRGRVSAKKAYLRNKKEICIAKHHEKFQQRFQSEDEYRAHHTIQIKRDKLHDEEERKSAWVSQERQRTLDRLRTFKQRYPGQVILKSTRLRVAHSRRKSTASPVPCEEQCHSLPTVLQGQEKTEVGGGGSQLGPSQTAEPQSLVQLEDTSSEQLESTSLPPRAVVSSELPPPQSAPLLTSIDPKPCSVTIDPLPPPLPPTPPPPPPPPPPPPPPLPVAKDNGASTTAETLEKDALRTEGNERSIPKSASAPAAHLFDSSQLVSARKKLRKTVEGLQRRRVSSPMDEVLASLKRGSFHLKKVEQRTLPPFPDEDDSNNILAQIRKGVKLKKVQKEVLRESFTLLPDTDPLTRSIHEALREIKEASPESEDEEEALPCTDWEN
  other: relative amount of MRTF-A bound to Flag-actin (competition by co-expressed JMY): 0.59
